Test results reported in US20230052369A1 (Zymeworks, published 2023).

Tests used:
[1] = target: T1, full-length human FRα, on 293E cells (human, UniProt P15328 25-234); assay: flow cytometry, 293E cells expressing FRα
T1 construct: also called folate receptor alpha; FOLR1
Method: Antibodies were diluted in 50 μl FB (PBS 2% FCS) 1:3 from stock in wells of a 96 V-well plate, and cells added on top. The cells were then left on ice for 30 minutes for the antibodies to bind. The cells were then washed twice in FB, and incubated in 50 μl FB containing 2 μg/ml goat anti-human Alexa647 antibody (Jackson Immunoresearch). The cells were then left on ice for a further 20 minutes, washed twice in FB, resuspended in 100 μl FB and analyzed on a BD Fortessa™ X20. The subsequent data files were analyzed using FlowJo™ and Prism 7 (GraphPad).

[2] = target: T2, purified human monomeric 4-1BB (human, UniProt Q07011 24-186); assay: SPR, Ab captured, monomeric 4-1BB injected
T2 construct: the assay used the 4-1BB part released by Factor Xa with the Fc removed; also called h4-1BB; human 4-1BB
T2 sequence (Q07011 other isoform, or with tags, fused parts or gaps limits assumed): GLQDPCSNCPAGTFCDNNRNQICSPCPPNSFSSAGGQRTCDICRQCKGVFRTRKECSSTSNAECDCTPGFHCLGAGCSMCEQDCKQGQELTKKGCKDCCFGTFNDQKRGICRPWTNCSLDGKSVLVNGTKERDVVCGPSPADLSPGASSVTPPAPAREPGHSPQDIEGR
Method: The anti-human Fc surface was prepared on a CMS Series S sensorchip by standard amine coupling methods as described by the manufacturer (GE Healthcare). Briefly, immediately after EDC/NHS activation, a 25 μg/mL solution of anti-human Fc in 10 mM NaOAc pH 4.5 was injected at a flow rate of 10 μL/min for 420 s until approximately 2000 resonance units (RUs) were immobilized on all four flow cells. The remaining active groups were quenched by a 420 s injection of 1M ethanolamine at 10 μL/min.
Antibodies for analysis were captured onto the anti-Fc surface by injecting 5 μg/mL solutions at a flow rate of 10 μL/min for 60 s. Using single-cycle kinetics, five concentrations of a two-fold dilution series of 4-1BB starting at 40 nM (for both supernatant and purified antibody runs) with a blank buffer control were sequentially injected at 40 μL/min for 180 s with a 600 s dissociation phase, resulting in a set of sensorgrams with a buffer blank reference. Experiments were performed at a constant temperature of 25° C. The anti-human Fc surfaces were regenerated to prepare for the next injection cycle by one pulse of 10 mM Glycine/HCl pH 1.5 for 120 s at 40 μL/min. Blank-subtracted sensorgrams were analyzed using Biacore™ T200 Evaluation Software v3.0. The blank-subtracted sensorgrams were then fit to the 1:1 Langmuir binding model.
Variants purified by SEC were assessed for binding to human 4-1BB.

T1 sequence (P15328 25-234 limits assumed): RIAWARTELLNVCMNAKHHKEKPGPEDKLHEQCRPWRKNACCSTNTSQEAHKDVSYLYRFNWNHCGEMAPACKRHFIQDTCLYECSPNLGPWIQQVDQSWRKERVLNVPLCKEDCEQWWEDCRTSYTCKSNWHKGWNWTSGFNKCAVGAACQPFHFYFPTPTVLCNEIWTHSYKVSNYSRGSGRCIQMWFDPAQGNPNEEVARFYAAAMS

Binder | binding result [1] | Kd [2]
v23657 (bispecific antibody, human IgG1, kappa, L234A L235A, also called 2E8 x 8K22 (VLVH) 2x1) heavy 1: QVQLKQSGPGLVQPSQSLSITCTVSGFSLTSYGVHWVRQSPGKGLEWLGVIWSGGSTDYNAAFISRLSISKDNSKSQVFFKMNSLQADDTAIYYCARNPLTATVMDYWGQGTSVTVSSASTKGPSVFPLAPSSKSTSGGTAALGCLVKDYFPEPVTVSWNSGALTSGVHTFPAVLQSSGLYSLSSVVTVPSSSLGTQTYICNVNHKPSNTKVDKKVEPKSCDKTHTCPPCPAPEAAGGPSVFLFPPKPKDTLMISRTPEVTCVVVSVSHEDPEVKFNWYVDGVEVHNAKTKPREEQYNSTYRVVSVLTVLHQDWLNGKEYKCKVSNKALPAPIEKTISKAKGQPREPQVYVYPPSRDELTKNQVSLTCLVKGFYPSDIAVEWESNGQPENNYKTTPPVLDSDGSFALVSKLTVDKSRWQQGNVFSCSVMHEALHNHYTQKSLSLSPGGGGGDIVMTQTPASVEAAVGGTVTIKCQASQSIYSSLAWYQQKPGQSPKLLIYDASHLASGVPSRFSGSRYGTEFTLTISGVQCDDAATYYCQGGWYSSAATYVPNTFGGGTEVVVKGGGGSGGGGSGGGGSQEQLVESGGGLVQPEGSLTLTCKASGFTISNNYYMCWVRQAPGKGLEWIACIYGGISGRTYYASWAKGRFTISKTSSTTVTLQMTSLTAADTATYFCVRGYVGTSNLWGPGTLVTVSS heavy 2: QVQLKQSGPGLVQPSQSLSITCTVSGFSLTSYGVHWVRQSPGKGLEWLGVIWSGGSTDYNAAFISRLSISKDNSKSQVFFKMNSLQADDTAIYYCARNPLTATVMDYWGQGTSVTVSSASTKGPSVFPLAPSSKSTSGGTAALGCLVKDYFPEPVTVSWNSGALTSGVHTFPAVLQSSGLYSLSSVVTVPSSSLGTQTYICNVNHKPSNTKVDKKVEPKSCDKTHTCPPCPAPEAAGGPSVFLFPPKPKDTLMISRTPEVTCVVVSVSHEDPEVKFNWYVDGVEVHNAKTKPREEQYNSTYRVVSVLTVLHQDWLNGKEYKCKVSNKALPAPIEKTISKAKGQPREPQVYVLPPSRDELTKNQVSLLCLVKGFYPSDIAVEWESNGQPENNYLTWPPVLDSDGSFFLYSKLTVDKSRWQQGNVFSCSVMHEALHNHYTQKSLSLSPG light: DIVMTQSQKFMSTSVGDRVSVTCKASQNVGTNVAWYQQKPGQSRTVLIYSASYRHSGVPDRFTGSGSGTDFTLTISNVQSEDLAEYFCQQYNSYPLTFGTGTKLELKRTVAAPSVFIFPPSDEQLKSGTASVVCLLNNFYPREAKVQWKVDNALQSGNSQESVTEQDSKDSTYSLSSTLTLSKADYEKHKVYACEVTHQGLSSPVTKSFNRGEC | binds | 175 nM
v23659 (bispecific antibody, human IgG1, kappa, L234A L235A, also called 5G8 x 8K22 (VLVH) 2x1) heavy 1: QVQLQESGPGLVQPTQSLSITCTVSGFSLISYGVHWVRQSPGKGLEWLGVIWSGGSTDYNAAFISRLSISKDNSKSQVFFKMNSLQADDTAIYYCARNPLTATVMDYWGQGTSVTVSSASTKGPSVFPLAPSSKSTSGGTAALGCLVKDYFPEPVTVSWNSGALTSGVHTFPAVLQSSGLYSLSSVVTVPSSSLGTQTYICNVNHKPSNTKVDKKVEPKSCDKTHTCPPCPAPEAAGGPSVFLFPPKPKDTLMISRTPEVTCVVVSVSHEDPEVKFNWYVDGVEVHNAKTKPREEQYNSTYRVVSVLTVLHQDWLNGKEYKCKVSNKALPAPIEKTISKAKGQPREPQVYVYPPSRDELTKNQVSLTCLVKGFYPSDIAVEWESNGQPENNYKTTPPVLDSDGSFALVSKLTVDKSRWQQGNVFSCSVMHEALHNHYTQKSLSLSPGGGGGDIVMTQTPASVEAAVGGTVTIKCQASQSIYSSLAWYQQKPGQSPKLLIYDASHLASGVPSRFSGSRYGTEFTLTISGVQCDDAATYYCQGGWYSSAATYVPNTFGGGTEVVVKGGGGSGGGGSGGGGSQEQLVESGGGLVQPEGSLTLTCKASGFTISNNYYMCWVRQAPGKGLEWIACIYGGISGRTYYASWAKGRFTISKTSSTTVTLQMTSLTAADTATYFCVRGYVGTSNLWGPGTLVTVSS heavy 2: QVQLQESGPGLVQPTQSLSITCTVSGFSLISYGVHWVRQSPGKGLEWLGVIWSGGSTDYNAAFISRLSISKDNSKSQVFFKMNSLQADDTAIYYCARNPLTATVMDYWGQGTSVTVSSASTKGPSVFPLAPSSKSTSGGTAALGCLVKDYFPEPVTVSWNSGALTSGVHTFPAVLQSSGLYSLSSVVTVPSSSLGTQTYICNVNHKPSNTKVDKKVEPKSCDKTHTCPPCPAPEAAGGPSVFLFPPKPKDTLMISRTPEVTCVVVSVSHEDPEVKFNWYVDGVEVHNAKTKPREEQYNSTYRVVSVLTVLHQDWLNGKEYKCKVSNKALPAPIEKTISKAKGQPREPQVYVLPPSRDELTKNQVSLLCLVKGFYPSDIAVEWESNGQPENNYLTWPPVLDSDGSFFLYSKLTVDKSRWQQGNVFSCSVMHEALHNHYTQKSLSLSPG light: DIVMTQSQKFMSTSVGDRVSVTCKASQNVGTNVAWYQQKPGQSPKALIYSASYRDSGVPDRFTGSGSGTDFTLTISNVQSEDLAEYLCQQYNSYPLTFGAGTKLELKRTVAAPSVFIFPPSDEQLKSGTASVVCLLNNFYPREAKVQWKVDNALQSGNSQESVTEQDSKDSTYSLSSTLTLSKADYEKHKVYACEVTHQGLSSPVTKSFNRGEC | binds | 208 nM
v23658 (bispecific antibody, human IgG1, kappa, L234A L235A, also called 4E6 x 8K22 (VLVH) 2x1) heavy 1: QVQLKESGPGLVAPSQSLSITCTVSGFSLTSYAINWVRQPPGKGLEWLGVLWPGGGTNYNSALKSRLSISKDNSKSQVFLKMNSLQTDDTARYYCARGSGTWYFDVWGAGTTVTVSSASTKGPSVFPLAPSSKSTSGGTAALGCLVKDYFPEPVTVSWNSGALTSGVHTFPAVLQSSGLYSLSSVVTVPSSSLGTQTYICNVNHKPSNTKVDKKVEPKSCDKTHTCPPCPAPEAAGGPSVFLFPPKPKDTLMISRTPEVTCVVVSVSHEDPEVKFNWYVDGVEVHNAKTKPREEQYNSTYRVVSVLTVLHQDWLNGKEYKCKVSNKALPAPIEKTISKAKGQPREPQVYVYPPSRDELTKNQVSLTCLVKGFYPSDIAVEWESNGQPENNYKTTPPVLDSDGSFALVSKLTVDKSRWQQGNVFSCSVMHEALHNHYTQKSLSLSPGGGGGDIVMTQTPASVEAAVGGTVTIKCQASQSIYSSLAWYQQKPGQSPKLLIYDASHLASGVPSRFSGSRYGTEFTLTISGVQCDDAATYYCQGGWYSSAATYVPNTFGGGTEVVVKGGGGSGGGGSGGGGSQEQLVESGGGLVQPEGSLTLTCKASGFTISNNYYMCWVRQAPGKGLEWIACIYGGISGRTYYASWAKGRFTISKTSSTTVTLQMTSLTAADTATYFCVRGYVGTSNLWGPGTLVTVSS heavy 2: QVQLKESGPGLVAPSQSLSITCTVSGFSLTSYAINWVRQPPGKGLEWLGVLWPGGGTNYNSALKSRLSISKDNSKSQVFLKMNSLQTDDTARYYCARGSGTWYFDVWGAGTTVTVSSASTKGPSVFPLAPSSKSTSGGTAALGCLVKDYFPEPVTVSWNSGALTSGVHTFPAVLQSSGLYSLSSVVTVPSSSLGTQTYICNVNHKPSNTKVDKKVEPKSCDKTHTCPPCPAPEAAGGPSVFLFPPKPKDTLMISRTPEVTCVVVSVSHEDPEVKFNWYVDGVEVHNAKTKPREEQYNSTYRVVSVLTVLHQDWLNGKEYKCKVSNKALPAPIEKTISKAKGQPREPQVYVLPPSRDELTKNQVSLLCLVKGFYPSDIAVEWESNGQPENNYLTWPPVLDSDGSFFLYSKLTVDKSRWQQGNVFSCSVMHEALHNHYTQKSLSLSPG light: DIQMTQTTSSLSASLGDRVTFSCSASQGISNYLNWYQQKPDGTVKLLIYYTSSLHLGVPSRFSGSGSGTDYSLTISNLEPEDIATYYCQQYSKLPWTFGGGTKLEIKRTVAAPSVFIFPPSDEQLKSGTASVVCLLNNFYPREAKVQWKVDNALQSGNSQESVTEQDSKDSTYSLSSTLTLSKADYEKHKVYACEVTHQGLSSPVTKSFNRGEC | binds | 499 nM
v23665 (bispecific antibody, human IgG1, kappa, L234A L235A, also called 6B3 x 1H06 (VLVH) 2x1) heavy 1: QVQLKESGPGLVAPSQSLSITCTVSGFSLTSYAISWVRQPPGKGLEWLGVIWPGGGTNYNSALKSRLSISKDNSKSQVFLKMNSLQTDDTARYYCARGTGTWYFDVWGAGTTVTVSSASTKGPSVFPLAPSSKSTSGGTAALGCLVKDYFPEPVTVSWNSGALTSGVHTFPAVLQSSGLYSLSSVVTVPSSSLGTQTYICNVNHKPSNTKVDKKVEPKSCDKTHTCPPCPAPEAAGGPSVFLFPPKPKDTLMISRTPEVTCVVVSVSHEDPEVKFNWYVDGVEVHNAKTKPREEQYNSTYRVVSVLTVLHQDWLNGKEYKCKVSNKALPAPIEKTISKAKGQPREPQVYVYPPSRDELTKNQVSLTCLVKGFYPSDIAVEWESNGQPENNYKTTPPVLDSDGSFALVSKLTVDKSRWQQGNVFSCSVMHEALHNHYTQKSLSLSPGGGGGDIVMTQTPSSVSAAVGGTVTIKCQASQTIGSSLAWYQQKPGQPPKLLIYRASTLASGVSSRFRGSGSGTEYTLTISDLECADAATYYCQWTDYGYIYIWAFGGGTEVVVKGGGGSGGGGSGGGGSQEQLVESGGGLVQPEGSLTLTCTASKFSFSSLYYMCWVRQAPGKGLEWIACVYGGSSGNTYYASWAKGRFTISKASSTTVTLQLTSLTAADTATYFCARFDVDGSGFNLWGPGTLVTVSS heavy 2: QVQLKESGPGLVAPSQSLSITCTVSGFSLTSYAISWVRQPPGKGLEWLGVIWPGGGTNYNSALKSRLSISKDNSKSQVFLKMNSLQTDDTARYYCARGTGTWYFDVWGAGTTVTVSSASTKGPSVFPLAPSSKSTSGGTAALGCLVKDYFPEPVTVSWNSGALTSGVHTFPAVLQSSGLYSLSSVVTVPSSSLGTQTYICNVNHKPSNTKVDKKVEPKSCDKTHTCPPCPAPEAAGGPSVFLFPPKPKDTLMISRTPEVTCVVVSVSHEDPEVKFNWYVDGVEVHNAKTKPREEQYNSTYRVVSVLTVLHQDWLNGKEYKCKVSNKALPAPIEKTISKAKGQPREPQVYVLPPSRDELTKNQVSLLCLVKGFYPSDIAVEWESNGQPENNYLTWPPVLDSDGSFFLYSKLTVDKSRWQQGNVFSCSVMHEALHNHYTQKSLSLSPG light: DIQMTQTTSSLSASLGDRVTISCSASQGISNYLNWYQQKPDGTVKLLIYYTSSLHSGVPSRFSGSGSGTDYSLTISNLEPEDIATYYCQQYSDLPWTFGGGTKLEIKRTVAAPSVFIFPPSDEQLKSGTASVVCLLNNFYPREAKVQWKVDNALQSGNSQESVTEQDSKDSTYSLSSTLTLSKADYEKHKVYACEVTHQGLSSPVTKSFNRGEC | binds | 464 nM
